Experimental data: patent US20220332804A1 (CSL INNOVATION, published 2022)
Substitutions are numbered along the chain they refer to.

Experiments:
Experiment in all cases: SPR, antibody captured, C2 as analyte;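 further: biacore SPR at 37 °C, anti-C2 mAbs captured via goat anti-human IgG on CM5 chips, double-referenced sensorgrams fit to a 1:1 kinetic or steady-state model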
human C2 S456A = target: T1, human C2 S456A (human, UniProt P06681 21-752)
T1 sequence: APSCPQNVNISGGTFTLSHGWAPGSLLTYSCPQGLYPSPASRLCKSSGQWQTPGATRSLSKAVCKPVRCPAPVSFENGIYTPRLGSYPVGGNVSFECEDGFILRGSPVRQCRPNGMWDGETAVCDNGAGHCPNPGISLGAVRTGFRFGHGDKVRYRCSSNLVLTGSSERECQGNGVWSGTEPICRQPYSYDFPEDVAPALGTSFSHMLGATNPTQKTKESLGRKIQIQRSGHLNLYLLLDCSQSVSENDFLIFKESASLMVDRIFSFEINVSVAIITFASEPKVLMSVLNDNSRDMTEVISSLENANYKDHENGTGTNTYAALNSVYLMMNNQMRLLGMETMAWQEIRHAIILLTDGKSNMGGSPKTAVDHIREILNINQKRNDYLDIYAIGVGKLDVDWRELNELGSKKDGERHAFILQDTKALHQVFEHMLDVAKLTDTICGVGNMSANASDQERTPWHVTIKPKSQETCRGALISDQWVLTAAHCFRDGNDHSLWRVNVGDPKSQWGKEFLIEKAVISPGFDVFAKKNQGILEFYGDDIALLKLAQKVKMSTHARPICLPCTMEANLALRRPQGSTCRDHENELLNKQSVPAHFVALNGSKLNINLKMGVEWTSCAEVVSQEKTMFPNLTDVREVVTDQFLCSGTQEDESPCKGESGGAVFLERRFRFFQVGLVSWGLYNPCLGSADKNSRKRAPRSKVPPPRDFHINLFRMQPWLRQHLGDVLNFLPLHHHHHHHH

human C2 T647A = target: T2, human C2 T647A (human, UniProt P06681 21-752)
T2 sequence: T1 sequence with A436S, T627A

human C2 H435A = target: T3, human C2 H435A (human, UniProt P06681 21-752)
T3 sequence: T1 sequence with H415A, A436S

human C2 D282A = target: T4, human C2 D282A (human, UniProt P06681 21-752)
T4 sequence: T1 sequence with D262A, A436S

B1: RF16-226 (antibody, human IgG4 S228P, lambda)
heavy: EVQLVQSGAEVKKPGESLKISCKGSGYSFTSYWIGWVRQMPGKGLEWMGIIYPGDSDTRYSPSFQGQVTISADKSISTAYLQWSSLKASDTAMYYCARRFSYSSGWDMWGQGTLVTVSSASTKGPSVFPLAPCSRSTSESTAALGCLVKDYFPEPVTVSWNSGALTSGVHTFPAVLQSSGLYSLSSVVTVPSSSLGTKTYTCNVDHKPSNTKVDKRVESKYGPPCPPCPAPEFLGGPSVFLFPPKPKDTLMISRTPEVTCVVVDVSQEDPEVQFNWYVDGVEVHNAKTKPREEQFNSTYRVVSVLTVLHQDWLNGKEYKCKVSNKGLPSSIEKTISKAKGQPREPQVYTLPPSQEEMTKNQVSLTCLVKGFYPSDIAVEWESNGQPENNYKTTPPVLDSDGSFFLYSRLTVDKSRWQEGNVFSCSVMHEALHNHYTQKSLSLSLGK
light: SYELTQPPSVSVSPGQTARITCSGDALTSKYVAWYQQKSGLAPLLVIYEDTRRPSGIPAKFSGSSSGSVATLTISGAHGDDEADYYCYSTDASGHQRVFGGGTKLTVLSQPKAAPSVTLFPPSSEELQANKATLVCLISDFYPGAVTVAWKADGSPVKAGVETTKPSKQSNNKYAASSYLSLTPEQWKSHRSYSCQVTHEGSTVEKTVAPTECS
notes: pH-dependent anti-C2 antibody from a phage display library; also called WT
- Kd (human C2 S456A): 71.8 nM
- Kd (human C2 T647A): 147 nM
- Kd (human C2 H435A): 24.3 nM
- Kd (human C2 D282A): 8.9 nM
